Laboratory results: PMC8786652 (Cell reports, 2022)

Target: recombinant stabilized SARS-CoV-2 Spike ectodomain (S-6P, HexaPro Spike), his-tagged (SARS-CoV-2, Wuhan-Hu-1 (HexaPro …, stabilised))
Test: SPR

B1: CV3-13 Fab (Fab, V domains shown)
VH: QVQLQQSGPGLVKPSQTLSLTCTVAGGSISSGTYYWSWIRQPAGKGLEWIGRIYTSGSANYNPSLKSRVTISVDTSKNQFSLRLSSVTAEDTAVYYCAREYSSSYYYFYYMDVWGKGTTVTVSS
VL: AIRMTQSPSSLSASVGDRVTITCQASQDISNYLNWYQQKPGKAPKLLIYVASNLETGVPSRFSGSGFGTDFTFTISSLQPEDIATYYCQQFDNLPYTFGQGTKLEIK
B1 gave a Kd of ~55 nM.
